As a reminder, the IC50 is the concentration that gives 50% inhibition. High values mean weaker potency in that assay, low ones greater potency in that assay.

Test [1] deals with T1, human LAG3-huFc (human, UniProt P18627 23-450, limits assumed).
T1 construct: also called human LAG3-Fc; huLAG3-huFc; not shown: human Fc (huFc)
T1 sequence: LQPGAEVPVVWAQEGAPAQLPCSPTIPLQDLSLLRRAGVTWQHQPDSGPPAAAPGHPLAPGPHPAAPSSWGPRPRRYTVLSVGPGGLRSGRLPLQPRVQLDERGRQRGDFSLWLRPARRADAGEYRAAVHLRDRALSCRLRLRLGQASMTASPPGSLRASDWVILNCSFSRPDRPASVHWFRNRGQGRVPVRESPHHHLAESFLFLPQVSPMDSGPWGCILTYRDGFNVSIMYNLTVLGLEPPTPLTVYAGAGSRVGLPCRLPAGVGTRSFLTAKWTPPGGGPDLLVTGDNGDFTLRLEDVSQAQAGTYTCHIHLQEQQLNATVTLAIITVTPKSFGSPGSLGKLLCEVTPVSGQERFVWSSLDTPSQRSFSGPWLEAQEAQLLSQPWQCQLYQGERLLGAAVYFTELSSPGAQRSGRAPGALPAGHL
Description: flow cytometry competition: antibody pre-incubated with human LAG3-huFc, its binding to Daudi cells (MHC class II) read. The procedure:
(§1) Mouse anti-human LAG3 clones were tested for their ability to block hLAG3 interaction with human MHC Class II. Daudi cells (ATCC #CCL-213) were used as a cell line positive for human MHC class II expression. Daudi cells were blocked with 10 ug/ml of goat IgG in HBSS and 2% BCS on ice for 30 minutes and 0.5×10⁶ cells/sample were aliquoted into a 96-well V-bottom plate and blocking buffer removed. […] Cells were pelleted by centrifugation at 1200 rpm and washed twice with HBSS/2% BCS. […] Cells were washed twice as described above, resuspended in HBSS/2% BCS and read on the FACSCalibur.
(In flow cytometry, cells or beads pass a laser one at a time.)

In test [2] the target is T1, human LAG3-huFc. The test is described as above. The procedure:
as §1
The source holds these as a separate data set.

The target in test [3] is T1, human LAG3-huFc. Description: flow cytometry competition: antibody pre-incubated with biotinylated human LAG3-huFc, its binding to Daudi cells (MHC class II) read with streptavidin-PE. The procedure: as §1, with “anti-human LAG3 and humanized anti-LAG3 clones were” for “anti-human LAG3 clones were”

B1: LB145.22D2.E1.1D1 (antibody, V domains shown)
VH: EVLLLQSGPELVKPGTSVKIPCKASGYTFTDYNVDWVKQRHGKGLEWIGDINPNNGGTIYSQKFKGKATLTVDKSSSTAFMELRSLTSEDTAVYFCARNYRWFGAMDHWGQGTSVTVSS
VL: DIVLTQSPASLAVSPGQRATISCKASQSLDYEGDSDMNWYQQKPGQPPRLLISGASNLESGIPARFSGSGSGTDFTVNIHPVEEEDAATYYCQQSTEDPRTFGGGTKLEIK
notes: also called mouse anti-human LAG3 clone 22D2; Lag3 clone 22D2
As to B1, the IC50 with human LAG3-huFc [1] and with human LAG3-huFc [2] was 2.1 nM each time.

B2: 22D2 Chimera ([LAG3_H] mAb (LB145.22D2.E1.D1 (VH0/VL0) Geneart) IgG4 S228P/kappa (PX)) (antibody, V domains shown)
VH: EVLLLQSGPELVKPGTSVKIPCKASGYTFTDYNVDWVKQRHGKGLEWIGDINPNNGGTIYSQKFKGKATLTVDKSSSTAFMELRSLTSEDTAVYFCARNYRWFGAMDHWGQGTSVTVSS
VL: DIVLTQSPASLAVSPGQRATISCKASQSLDYEGDSDMNWYQQKPGQPPRLLISGASNLESGIPARFSGSGSGTDFTVNIHPVEEEDAATYYCQQSTEDPRTFGGGTKLEIK
notes: Chimeric antibody: 22D2 VH0/VL0 variable domains on human IgG4 S228P/kappa; also called Chimeric 22D2; Anti-hLAG3 clone 22D2 (chimeric antibody)
For B2, in the test with human LAG3-huFc [3], the IC50 was 2.5 nM.

B3: LB148.19E8.G1.1A1 (antibody, V domains shown)
VH: QIRLQQSGPELVKPGASVKISCKASGSSFTDYYINWVKQKPGQGLEWIGWIYPGSGNSIYNENFKAKATLTVDTSSSTAYMHLSSLTSEDTAVYFCAREADYDDALDYWGQGTSVTVSS
VL: HILLTQSPAILSVSPGERVSFSCRASQSIGTSIHWYQQRTNGSPRLLIKYASESISGIPSRFSGSGSGTDFTLSINSVESEDIADYYCQQSNSWPTYTFGGGTKLEIK
notes: also called Lag3 clone 19E8
Consider B3, for which the IC50 in the test with human LAG3-huFc [1] and in the test with human LAG3-huFc [2] was 2.8 nM throughout.

B4: Hu22D2 VH6/VL3 (Ab 5) (antibody, human IgG4 S228P, kappa, V domains shown)
VH: QMQLVQSGPEVKKPGTSVKVSCKASGYTFTDYNVDWVRQARGQRLEWIGDINPNNGGTIYAQKFQERVTITVDKSTSTAYMELSSLRSEDTAVYYCARNYRWFGAMDHWGQGTTVTVSS
VL: DIVMTQTPLSLSVTPGQPASISCKASQSLDYEGDSDMNWYLQKPGQPPQLLIYGASNLESGVPDRFSGSGSGTDFTLKISRVEAEDVGVYYCQQSTEDPRTFGGGTKVEIKR
notes: Humanized 22D2, IgG4 S228P/kappa; also called 45AGX light chain / 57AHH heavy chain IgG4 S228P
Regarding B4, the IC50 with human LAG3-huFc [3] came to 2.6 nM.

B5: Hu22D2 VH6/VL3 N55D (Ab 6) (antibody, human IgG4 S228P, kappa, V domains shown)
VH: QMQLVQSGPEVKKPGTSVKVSCKASGYTFTDYNVDWVRQARGQRLEWIGDINPNDGGTIYAQKFQERVTITVDKSTSTAYMELSSLRSEDTAVYYCARNYRWFGAMDHWGQGTTVTVSS
VL: DIVMTQTPLSLSVTPGQPASISCKASQSLDYEGDSDMNWYLQKPGQPPQLLIYGASNLESGVPDRFSGSGSGTDFTLKISRVEAEDVGVYYCQQSTEDPRTFGGGTKVEIKR
notes: Humanized 22D2, IgG4 S228P/kappa; also called Hu2D2; 45AGX light chain / 73AHD heavy chain IgG4 S228P
In turn, B5 showed an IC50 with human LAG3-huFc [3] of 2.4 nM.

B6: Hu22D2 VH6/VL3 N55S (Ab 7) (antibody, human IgG4 S228P, kappa, V domains shown)
VH: QMQLVQSGPEVKKPGTSVKVSCKASGYTFTDYNVDWVRQARGQRLEWIGDINPNSGGTIYAQKFQERVTITVDKSTSTAYMELSSLRSEDTAVYYCARNYRWFGAMDHWGQGTTVTVSS
VL: DIVMTQTPLSLSVTPGQPASISCKASQSLDYEGDSDMNWYLQKPGQPPQLLIYGASNLESGVPDRFSGSGSGTDFTLKISRVEAEDVGVYYCQQSTEDPRTFGGGTKVEIKR
notes: Humanized 22D2, IgG4 S228P/kappa; also called 45AGX light chain / 21AHG heavy chain IgG4 S228P
Consider B6, for which, in the test with human LAG3-huFc [3], the IC50 came to 2.1 nM.

B7: Hu22D2 VH6/VL3 N55Q (Ab 8) (antibody, human IgG4 S228P, kappa, V domains shown)
VH: QMQLVQSGPEVKKPGTSVKVSCKASGYTFTDYNVDWVRQARGQRLEWIGDINPNQGGTIYAQKFQERVTITVDKSTSTAYMELSSLRSEDTAVYYCARNYRWFGAMDHWGQGTTVTVSS
VL: DIVMTQTPLSLSVTPGQPASISCKASQSLDYEGDSDMNWYLQKPGQPPQLLIYGASNLESGVPDRFSGSGSGTDFTLKISRVEAEDVGVYYCQQSTEDPRTFGGGTKVEIKR
notes: Humanized 22D2, IgG4 S228P/kappa; also called 45AGX light chain / 80AHG heavy chain IgG4 S228P
In the test with human LAG3-huFc [3], B7 gave an IC50 of 2.5 nM.

B8: LB148.4A10.1H1 (antibody, V domains shown)
VH: EVQLLQSGAELVRSGASVKLSCTASGFNIEDYYMHWMKQRPEQGLEWIGWIDPVNGDTEYAPKFQGKATMTADTSSNTAYLHLNSLTSEDTAVYYCNFYDGYLFAFWGQGTLVTVSA
VL: DIVLTQAAPSVPVTPGESVSISCRSSKSLLHSDGNTYLYWLLQRPGQSPQLLIYRMSNLASGVPDRFSGSGSGTVFTLRISRLEAEDVGIYYCMQHLEYPFTFGGGTKLEIK
notes: also called Lag3 clone 4A10; mouse x [LAG3_H] mAb (LB148.4A10.1H1) IgG2a/kappa (HY)
Take B8: the IC50 with human LAG3-huFc [1] and in the test with human LAG3-huFc [2] was 1.9 nM each time.

B9: LB148.11C9.1C1 (antibody, V domains shown)
VH: QVQLQQPGAELVMPGASAKMSCKASGYTLTDYWMHWVKQRPGQGLEWIGAIDISDSYSSYNQKFKGKATLTVDESSSTAYMQLTSLTSEDSAVYYCARSPFYNSRGGNYFDYWGQGTTLTVSS
VL: DIQMTQTTSSLSASLGDRVTISCRASQDISNYLNWYQQKPDGTVKLLIYYTSRLHSGVPSRFSGSGSGTDYSLTISNLEQEDIATYFCQQGDTLPPWTFGGGTKLEIK
notes: also called Lag3 clone 11C9; mouse x [LAG3_H] mAb (LB148.11C9.1C1) IgG1/kappa (HY)
Consider B9, for which the IC50 with human LAG3-huFc [1] and in the test with human LAG3-huFc [2] was 2 nM each time.
